How the values were obtained:
[1] = target: human insulin receptor B-isoform (human) (UniProt P06213); experiment: SPA competition against [125I]A14Tyr-insulin, solubilized hIR-B, analogue in yeast supernatant
[2] = target: human insulin receptor A-isoform (human) (UniProt P06213); experiment: SPA competition against [125I]A14Tyr-insulin, solubilized hIR-A, analogue in yeast supernatant
[3] = target: human insulin receptor B-isoform (human) (UniProt P06213); experiment: SPA competition; ratio of the hIR-B column to the hIR-A column

relative affinity [% of HI] [1]: 140 % of HI
relative affinity [% of HI] [2]: 67 % of HI
Ratio B/A (relative hIR-B affinity over relative hIR-A affinity) [3]: 2.1
Substance: [A8H, B25H, B27E, desB30] human insulin (ligand)

Source: patent publication US20110294729A1, “Novel Insulin Analogues” (Novo Nordisk A/S, priority 2008, published 2011)
